# In patent publication US20120237496:
# T1: Peptide-8 (not fully specified)
# T1 chain: CQLYENKPRRPYILK
# T2: Peptide-5 (not fully specified)
# T2 chain: CDRVYIHPFHLK
# T3: Peptide-13 (not fully specified)
# T3 chain: CRPPGFSPFRK
# T4: Peptide-3
# T4 chain: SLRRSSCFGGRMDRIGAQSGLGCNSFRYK
# T5: Peptide-6a
# T5 chain: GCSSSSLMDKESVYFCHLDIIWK
# T6: Peptide-6b
# T6 chain: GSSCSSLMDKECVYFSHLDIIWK
# Key:
# Peptide-8 = biological target: T1, Peptide-8
# Peptide-5 = biological target: T2, Peptide-5
# Peptide-13 = biological target: T3, Peptide-13
# Peptide-3 = biological target: T4, Peptide-3
# Peptide-6a = biological target: T5, Peptide-6a
# Peptide-6b = biological target: T6, Peptide-6b
Protein,kapp ratio vs G399V/G714K (B1) (Peptide-8) [fold],kapp ratio vs G399V/G714K (B1) (Peptide-4) [fold],kapp ratio vs G399V/G714K (B1) (Peptide-5) [fold],kapp ratio vs G399V/G714K (B1) (Peptide-13) [fold],kapp ratio vs G399V/G714K (B1) (Peptide-3) [fold],kapp ratio vs G399V/G714K (B1) (Peptide-6a) [fold],kapp ratio vs G399V/G714K (B1) (Peptide-2) [fold],kapp ratio vs G399V/G714K (B1) (Peptide-7) [fold],kapp ratio vs G399V/G714K (B1) (Peptide-1) [fold],kapp ratio vs G399V/G714K (B1) (Peptide-6b) [fold]
C12 (protein) YPYDVPDYAYPYDVPDYAYPYDVPDYAGSYDDGICKSSDCIKSAARLIQNMDATTEPCTDFFKYACGGWLKRNVIPETSSRYGNFDILRDELEVVLKDVLQEPKTEDIVAVQKAKALYRSCINESAIDSRGGEPLLKLLPDIYGWPVATENWEQKYGASWTAEKAIAQLNSKYGKKVLINLFVGTDDKNSVNHVIHIDQPRLGLPRRDYYECTGIYKEACTAYVDLMISVARLIRQEERLPIDENQLALEMNKVMELEKEIANATAKPEDRNDPMLLYNKMTLAQIQNNFSLEINGKPFSWLNFTNEIMSTVNISITNEEDVVVYAPEYLTKLKPILTKYSARDLQNLMSWRFIMDLVSSLSRTYKESRNAFRKALYVTTSETATWRRCANYVNGNMENAVGRLYVEAAFAGESKHVVEDLIAQIREVFIQTLDDLTWMDAETKKRAEEKALAIKERIGYPDDIVSNDNKLNNEYLELNYKEDEYFENIIQNLKFSQSKQLKKLREKVDKDEWISGAAVVNAFYSSGRNQIVFPAGILQPPFFSAQQSNSLNYGGIGMVIGHEITHGFMDNGRNFNKDVDLVDWWTQQSASNFKEQSQCMVYQYGNFSWDLAGGQHLNGINTLGENIADNGGLGQAYRAYQNYIKKNGEEKLLPGLDLNHKQLFFLNFAQVWCGTYRPEYAVNSIKTDVHSPKNFRIIGTLQNSAEFSEAFHCRKNSYMNPEKKCRVW,0.43,0.79,0.26,0.83,0.24,0.32,2.04,0.84,2.11,0.18
C14 (protein) YPYDVPDYAYPYDVPDYAYPYDVPDYAGSYDDGICKSSDCIKSAARLIQNMDATTEPCTDFFKYACGGWLKRNVIPETSSRYGNFDILRDELEVVLKDVLQEPKTEDIVAVQKAKALYRSCINESAIDSRGGEPLLKLLPDIYGWPVATENWEQKYGASWTAEKAIAQLNSKYGKKVLINLFVGTDDKNSVNHVIHIDQPRLGLPSGDYYECTGIYKEACTAYVDLMISVARLIRQEERLPIDENQLALEMNKVMELEKEIANATAKPEDRNDPMLLYNKMTLAQIQNNFSLEINGKPFSWLNFTNEIMSTVNISITNEEDVVVYAPEYLTKLKPILTKYSARDLQNLMSWRFIMDLVSSLSRTYKESRNAFRKALYVTTSETATWRRCANYVNGNMMNAVGRLYVEAAFAGESKHVVEDLIAQIREVFIQTLDDLTWMDAETKKRAEEKALAIKERIGYPDDIVSNDNKLNNEYLELNYKEDEYFENIIQNLKFSQSKQLKKLREKVDKDEWISGAAVVNAFYSSGRNQIVFPAGILQPPFFSAQQSNSLNYGGIGMVIGHEITHGFMDNGRNFNKDDDLVDWWTQQSASNFKEQSQCMVYQYGNFSWDLAGGQHLNGINTLGENIADNGGLGQAYRAYQNYIKKNGEEKLLPGLDLNHKQLFFLNFAQVWCGTYRPEYAVNSIKTDVHSPKNFRIIGTLQNSAEFSEAFHCRKNSYMNPEKKCRVW,0.43,0.72,0.2,0.71,0.24,0.3,2.01,0.59,1.98,0.24
C13 (protein) YPYDVPDYAYPYDVPDYAYPYDVPDYAGSYDDGICKSSDCIKSAARLIQNMDATTEPCTDFFKYACGGWLKRNVIPETSSRYGNFDILRDELEVVLKDVLQEPKTEDIVAVQKAKALYRSCINESAIDSRGGEPLLKLLPDIYGWPVATENWEQKYGASWTAEKAIAQLNSKYGKKVLINLFVGTDDKNSVNHVIHIDQPRLGLPSGDYYECTGIYKEACTAYVDLMISVARLIRQEERLPIDENQLALEMNKVMELEKEIANATAKPEDRNDPMLLYNKMTLAQIQNNFSLEINGKPFSWLNFTNEIMSTVNISITNEEDVVVYAPEYLTKLKPILTKYSARDLQNLMSWRFIMDLVSSLSRTYKESRNAFRKALYVTTSETATWRRCANYVNGNMMNAVGRLYVEAAFAGESKHVVEDLIAQIREVFIQTLDDLTWMDAETKKRAEEKALAIKERIGYPDDIVSNDNKLNNEYLELNYKEDEYFENIIQNLKFSQSKQLKKLREKVDKDEWISGAAVVNAFYSSGRNQIVFPAGILQPPFFSAQQSNSLNYGGIGMVIGHEITHGFMDNGRNFNKDVDLVDWWTQQSASNFKEQSQCMVYQYGNFSWDLAGGQHLNGINTLGENIADNGGLGQAYRAYQNYIKKNGEEKLLPGLDLNHKQLFFLNFAQVWCGTYRPEYAVNSIKTDVHSPKNFRIIGTLQNSAEFSEAFHCRKNSYMNPEKKCRVW,0.35,0.91,0.18,0.39,0.24,0.3,1.56,0.36,1.78,0.18
C16 (protein) YPYDVPDYAYPYDVPDYAYPYDVPDYAGSYDDGICKSSDCIKSAARLIQNMDATTEPCTDFFKYACGGWLKRNVIPETSSRYGNFDILRDELEVVLKDVLQEPKTEDIVAVQKAKALYRSCINESAIDSRGGEPLLKLLPDIYGWPVATENWEQKYGASWTAEKAIAQLNSKYGKKVLINLFVGTDDKNSVNHVIHIDQPRLGLPSGDYYECTGIYKEACTAYVDFMISVARLIRQEERLPIDENQLALEMNKVMELEKEIANATAKPEDRNDPMLLYNKMTLAQIQNNFSLEINGKPFSWLNFTNEIMSTVNISITNEEDVVVYAPEYLTKLKPILTKYSARDLQNLMSWRFIMDLVSSLSRTYKESRNAFRKALYVTTSETATWRRCANYVNGNMMNAVGRLYVEAAFAGESKHVVEDLIAQIREVFIQTLDDLTWMDAETKKRAEEKALAIKERIGYPDDIVSNDNKLNNEYLELNYKEDEYFENIIQNLKFSQSKQLKKLREKVDKDEWISGAAVVNAFYSSGRNQIVFPAGILQPPFFSAQQSNSLNYGGIGMVIGHEITHGFMDNVRNPNKDWDLVDWWTQQSASNFKEQSQCMVYQYGNFSWDLAGGQHLNGINTLGENIADNGGLGQAYRAYQNYIKKNGEEKLLPGLDLNHKQLFFLNFAQVWCGTYRPEYAVNSIKTDVHSPKNFRIIGTLQNSAEFSEAFHCRKNSYMNPEKKCRVW,0.4,0.7,0.21,0.44,0.24,0.35,2.19,0.7,2.24,0.23
C17 (protein) YPYDVPDYAYPYDVPDYAYPYDVPDYAGSYDDGICKSSDCIKSAARLIQNMDATTEPCTDFFKYACGGWLKRNVIPETSSRYGNFDILRDELEVVLKDVLQEPKTEDIVAVQKAKALYRSCINESAIDSRGGEPLLKLLPDIYGWPVATENWEQKYGASWTAEKAIAQLNSKYGKKVLINLFVGTDDKNSVNHVIHIDQPRLGLPSGDYYECTGIYKEACTAYVDFMISVARLIRQEERLPIDENQLALEMNKVMELEKEIANATAKPEDRNDPMLLYNKMTLAQIQNNFSLEINGKPFSWLNFTNEIMSTVNISITNEEDVVVYAPEYLTKLKPILTKYSARDLQNLMSWRFIMDLVSSLSRTYKESRNAFRKALYVTTSETATWRRCANYVNGNMMNAVGRLYVEAAFAGESKHVVEDLIAQIREVFIQTLDDLTWMDAETKKRAEEKALAIKERIGYPDDIVSNDNKLNNEYLELNYKEDEYFENIIQNLKFSQSKQLKKLREKVDKDEWISGAAVVNAFYSSGRNQIVFPAGILQPPFFSAQQSNSLNYGGIGMVIGHEITHGFMDNVRNPNKDGDLVDWWTQQSASNFKEQSQCMVYQYGNFSWDLAGGQHLNGINTLGENIADNGGLGQAYRAYQNYIKKNGEEKLLPGLDLNHKQLFFLNFAQVWCGTYRPEYAVNSIKTDVHSPKNFRIIGTLQNSAEFSEAFHCRKNSYMNPEKKCRVW,0.33,0.7,0.27,0.49,0.24,0.47,3.13,0.57,3.28,0.33
C15 (protein) YPYDVPDYAYPYDVPDYAYPYDVPDYAGSYDDGICKSSDCIKSAARLIQNMDATTEPCTDFFKYACGGWLKRNVIPETSSRYGNFDILRDELEVVLKDVLQEPKTEDIVAVQKAKALYRSCINESAIDSRGGEPLLKLLPDIYGWPVATENWEQKYGASWTAEKAIAQLNSKYGKKVLINLFVGTDDKNSVNHVIHIDQPRLGLPSGDYYECTGIYKEACTAYVDFMISVARLIRQEERLPIDENQLALEMNKVMELEKEIANATAKPEDRNDPMLLYNKMTLAQIQNNFSLEINGKPFSWLNFTNEIMSTVNISITNEEDVVVYAPEYLTKLKPILTKYSARDLQNLMSWRFIMDLVSSLSRTYKESRNAFRKALYVTTSETATWRRCANYVNGNMMNAVGRLYVEAAFAGESKHVVEDLIAQIREVFIQTLDDLTWMDAETKKRAEEKALAIKERIGYPDDIVSNDNKLNNEYLELNYKEDEYFENIIQNLKFSQSKQLKKLREKVDKDEWISGAAVVNAFYSSGRNQIVFPAGILQPPFFSAQQSNSLNYGGIGMVIGHEITHGFMDNVRNFNKDDDLVDWWTQQSASNFKEQSQCMVYQYGNFSWDLAGGQHLNGINTLGENIADNGGLGQAYRAYQNYIKKNGEEKLLPGLDLNHKQLFFLNFAQVWCGTYRPEYAVNSIKTDVHSPKNFRIIGTLQNSAEFSEAFHCRKNSYMNPEKKCRVW,0.52,0.7,0.25,0.44,0.24,0.46,2.72,0.75,2.52,0.24
